Like-named read-outs stand apart in the source and are kept apart here.

For experiment [1], the target named is FGF receptor (FGFR). Kind of experiment: cell-based or functional assay.
Experiment [2] deals with FGF receptor (FGFR). The experiment can be described thus: cell-based or functional assay. The source holds these as a separate data set.

Consider “FGF-1 Glu87→Val/Pro134→Val mutant (in the WT* Cys117→Val background) (from UniProt P05230 16-155) (ligand)”, for which the values for the mitogenic activity (NIH 3T3 fibroblast proliferation, EC50) (fold reduction) in experiment [1] and in experiment [2] were 2 and 3, respectively.
Consider “FGF-1 Lys12→Val/Asn95→Val mutant (in the WT* Cys117→Val background) (from UniProt P05230 16-155) (ligand)”, for which, in experiment [2], the mitogenic activity (NIH 3T3 fibroblast proliferation, EC50) (fold reduction) came to 1000.

The values are drawn from patent publication US7696171.
